Results on one molecule are retold here after patent US20260227403A1 (HENRY M JACKSON FOUNDATION FOR THE ADVANCEMENT OF MILITARY …, published 2026).

The target of experiment [1] is T1, overlapping peptide P6 (12 amino acids, FIG. 3 panel A) (human).
T1 construct: The overlapping 12-mer is meant here
T1 peptide: PQGFKQEYHDPV
Description: ELISA: 500 ng peptide coated per well, 29E4 titrated 0-1000 ng/mL, HRP goat anti-rabbit Ig 1:16,000, ABS 450 nm, duplicates. The text has this: (§1) HRP Goat anti-rabbit Ig was applied at 1:16,000 dilution in all reactions.
(§2) Peptides were synthesized to achieve ≥70% HPLC purity by a commercial vendor (GenScript Biotech, Piscataway, NJ). Peptides were reconstituted in either water, or with addition of acetonitrile, methanol, 10% acetic acid, or DMSO, depending on the overall charge of each peptide. Key residues required for mAb binding were probed by ELISA using overlapping peptides, truncated peptides and alanine substituted peptides. Reactions were performed in duplicate using NUNC 96-well flatbottom MaxiSorp plates (Thermo Scientific). After coating each well with 500 ng of peptide in 100 μL coating buffer (50 mM NaHCO₃, pH 9.6), the plates were sealed and incubated at 4° C. overnight. […] Plates were then washed once with wash buffer, incubated with 100 μL mAb 29E4 (serially diluted from 1 mg/mL) for 1 hour at 37° C. Plates were further washed four times with wash buffer, and then incubated at 37° C. with 100 μL of a horse radish peroxidase (HRP)-conjugated secondary antibody against the primary antibody, diluted 1:16,000 according to manufacturer's protocols (KPL, Inc., Gaithersburg, MD). After washing four times with wash buffer, 100 μL of K-Blue Aqueous TMB substrate (Neogen, Lexington, KY) was added to the plates and incubated uncovered for 30 minutes at room temperature. To stop the reaction, 100 μL of 2 N Sulphuric acid was added to each well and absorbance were measured immediately at 450 nm. All dilutions of reagents were performed in ELISA diluent (20% NGS in 1×PBS with 0.1% Triton-X 100).

Experiment [2] concerns the target T2, overlapping peptide P7 (12 amino acids, FIG. 3 panel A) (human).
T2 construct: The overlapping 12-mer is meant here
T2 peptide: FKQEYHDPVYEH
Described as above.
Description: as §1, §2

Experiment [3] addresses T3, overlapping peptide P4 (12 amino acids, FIG. 3 panel A) (human).
T3 peptide: PNIPFPPQGFKQ
Described as above.
Description: as §1, §2

Experiment [4] deals with T4, overlapping peptide P3 (12 amino acids, FIG. 3 panel A) (human).
T4 construct: The overlapping 12-mer is meant here
T4 peptide: MSEPNIPFPPQG
The description is as above.
Description: as §1, §2

In experiment [5] the target is T5, overlapping peptide P5 (12 amino acids, FIG. 3 panel A) (human).
T5 construct: The overlapping 12-mer is meant here
T5 peptide: PFPPQGFKQEYH
The experiment is described as above.
Description: as §1, §2

The target in experiment [6] is T6, ETV1 immunogenic peptide P1 (human).
T6 construct: 27 amino acid peptide, ETV1 residues 212-238; also called immunogen peptide; ETV1 P1 peptide
The description is as above.
Description: as §1, §2

The target of experiment [7] is T7, ERG3 (pCMV-ERG3 plasmid, Exons 5-16, NM_001136154) (UniProt P11308-3 40-486).
T7 construct: Expressed in HEK-293 cells and tested as cell lysate on an immunoblot; also called ETS Transcription Factor ERG
T7 sequence (looked up): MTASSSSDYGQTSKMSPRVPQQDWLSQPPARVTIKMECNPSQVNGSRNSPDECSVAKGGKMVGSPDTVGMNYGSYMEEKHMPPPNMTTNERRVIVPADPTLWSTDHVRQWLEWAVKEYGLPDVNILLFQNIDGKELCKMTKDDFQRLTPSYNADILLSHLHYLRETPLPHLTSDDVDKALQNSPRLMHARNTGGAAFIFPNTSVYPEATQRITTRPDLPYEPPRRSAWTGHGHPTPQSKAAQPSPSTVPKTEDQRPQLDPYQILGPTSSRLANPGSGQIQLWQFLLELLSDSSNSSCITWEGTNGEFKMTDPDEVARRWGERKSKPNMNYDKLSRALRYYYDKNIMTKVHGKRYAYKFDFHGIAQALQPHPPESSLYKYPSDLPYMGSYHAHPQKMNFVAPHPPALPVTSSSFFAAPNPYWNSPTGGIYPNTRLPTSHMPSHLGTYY
Kind of experiment: immunoblot of cell lysates (HEK-293 2 µg per lane) probed with 29E4; the protein is shown present in panel C. Here is the method:
Immunoblots using antibodies against ETV1 (A and H), ETV4 (B), ERG (C), SPDEF (D), FLI1 (E), FLAG (F), and GAPDH (G), as a loading control. […] PC3 cells were transfected with 25 nM non-targeting (NT) siRNA or ETV-1 siRNA oligos (lanes 1 and 2, respectively). […] were infected with either a control vector (lane 10) or adenoviral vector expressing FLI1 (lanes 11).
Cell lysates were then cleared by centrifugation at 10,000×g for 15 minutes at 4° C. and transferred to fresh tubes. Protein concentration was measured using Protein Assay Reagent (Bio-Rad, Hercules, CA). […] Separated proteins were transferred onto PVDF membranes using a Trans-Blot SD semi-dry transfer cell (BioRad) at 25 V for 90 minutes. Membranes were blocked in blocking buffer (Tris buffered saline with 0.25% Tween 20 (TBST) containing 1% BSA) for one hour at room temperature before incubation with primary antibodies (1 ng/mL) for 12 hours at 4° C. Membranes were then washed with wash buffer (TBST) in three ten-minute washes before treatment with IRDye 680RD conjugated goat anti-rabbit or IRDye 800 RD conjugated goat anti-mouse secondary antibodies (LI-COR Biosciences, Lincoln, NE) for three hours at room temperature.

The target in experiment [8] is T8, P16 (alanine substituted, FIG. 3 panel E).
T8 construct: also called G226 to alanine
Kind of experiment: ELISA: 500 ng peptide coated per well, 29E4 at 40 ng/mL, HRP goat anti-rabbit Ig 1:16,000, ABS 450 nm, duplicates [CONT. 2].
Description: as §1, §2

For experiment [9], the target named is T9, P24 (alanine substituted, FIG. 3 panel E).
T9 construct: also called P234 to alanine
The description is as above.
Description: as §1, §2

T9 sequence (peptide, as listed by the source): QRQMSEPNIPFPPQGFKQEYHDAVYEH
T8 sequence (peptide, as listed by the source): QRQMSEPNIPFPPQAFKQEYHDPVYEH
T6 sequence (peptide, as listed by the source): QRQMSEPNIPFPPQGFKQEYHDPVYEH

B1: ETV1 rabbit monoclonal antibody (29E4) (antibody, V domains shown)
VH: QELEESGGDLVKPGASLTLTCTASGFFFSAENHICWVRQAPGKGLEWIGCVYIGSYVGGSGDPYYASWAKGRFTISKTSSTTVTLQMSSLTAADTATYFCARDLGSLWGPGTLVTVSS
VL: DVVMTQTASSVSAAVGGTVTIACQSSQSVYDNNNLAWFQQKPGQPPKRLIYSASTLASGVSSRFKGSGYGTQFTLTISDVQCDDAATYYCVGAFSGYIFVFGGGTEVVVK
notes: constant regions are not; also called 29E4 mAb; ETV1 29E4 mAb
In the case of B1, the binding result in [1] is “no binding (tested: 1000 ng/mL)”; in experiment [2] it was “no binding (tested: 1000 ng/mL)”; in experiment [4], “binds”; in experiment [5], “binds”; in experiment [7], “no binding”; in [8], “binds”. The binding result in experiment [9] was “binds”. Moreover, the “EC50 (read off the curve)” value in experiment [3] is approximately 0.1 µg/mL; in [6], approximately 0.02 µg/mL.
